# Measurements reported in the RNAGym collection of RNA variant scans (doi:10.1073/pnas.2313332121).
# This sample holds only a part of the variants without activity.
# B1: TPR 5TU (parent)
# chain: GGAUCUUCUCGAUCUAACAAAAAAGACAAAUCUGCCACAAAGCUUGAGAGCAUCUUCGGAUGCAGAGGCGGCAGCCUUCGGUGGCGCGAUAGCGCCAACGUUCUCAACUAUGACACGCAAAACGCGUGCUCCGUUGAAUGGAGUUUAUCAUG
# Variants of: B1
# Test: polymerase ribozyme fitness, log enrichment relative to wild type (log ratio); higher = more active; in vitro selection for triplet polymerase activity
# Outline: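 To select mutant libraries of each subunit of a heterodimeric triplet polymerase ribozyme, built by PCR and transcribed, each was annealed with a biotinylated primer, partner subunit and triplets, then incubated frozen at −7 °C. Extended constructs were gel-excised, captured on streptavidin beads and amplified by RT-PCR, in one round carried out in triplicate. Illumina sequencing of input and output libraries kept genotypes with ≥10 input reads and ≥1 read per output. Fitness is the base-2 logarithm of genotype enrichment relative to wild-type enrichment, from inverse-variance-weighted replicate averages.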
row,Variant,polymerase ribozyme fitness (log ratio)
1,GGAUCUUCUCGAUCUAACAAAAAAGACAAAUCUGCCACAAAGCUUGAGAGCAUCUUCGGAAGCAGCGGCGGCAGCCUUCAGGGGCGCGAUAGCGCCAACGUUCUCAACUAUGACACGCAAAACGCGUGCUCCGUUGAAUGGAGUUUAUCAUG,≤ -4.2
2,GGAUCUUCUCGAUCUAACAAAAAAGACAAAUCUGCCACAAAGCUUGAGAGCAUCUUCGGAAGCAGAGGCGGCAGCCUUCGGUGGCGCGAUAGCGCCAACGUUCUCUACUAUGACACGCAAAACGCGUGCUCCGUUGAAUGGAGUUUAUCAUG,-2.41
3,GGAUCUUCUCGAUCUAACAAAAAAGACAAAUCUGCCACAAAGCUUGAGAGCAUCUUCGGAAGCAGAGGCGGCAGCCUUCGGUGGCGCGAUAGCGCCAACGUUCUCAACGAUGACACGCAAAACGCGUGCUCCGUUGAAUGGAGUUUAUCAUG,-2.11
4,GGAUCUUCUCGAUCUAACAAAAAAGACAAAUCUGCCACAAAGCUUGAGAGCAUCUUCGGAGGCAGAGGCGGUAGCCUUCGGUGGCGCGAUAGCGCCAACGUUCUCAACUAUGACACGCAAAACGCGUGCUCCGUUGAAUGGAGUUUAUCAUG,-1.45
5,GGAUCUUCUCGAUCUAACAAAAAAGACAAAUCUGCCACAAAGCUUGAGAGCAUCUUCGGAAGCAGCGGCGGCUGCCUUCGGUGGCGCGAUGGCGCCAACGUUCUCAACUAUGACACGCAAAACGCGUGCUCCGUUGAAUGGAGUUUAUCAUG,≤ -4.2
6,GGAUCUUCUCGAUCUAACAAAAAAGACAAAUCUGCCACAAAGCUUGAGAGCAUCUUCGGAAGCAGAGGCGGCAGCCUUCGGUGACGCGAUAGCGCCAACGUUCUCAACUAUGACACGCAAAACGCGUGCUCCGAUGAAUGGAGUUUAUCAUG,-3.68
7,GGAUCUUCUCGAUCUAACAAAAAAGACAAAUCUGCCACAAAGCUUGAGAGCAUCUUCGGAAGCAGAGGCGGCAGCCUUCGGUGGCGCGCUAGCGCCAACGUUCUCCACUAUGACACGCAAAACGCGUGCUCCGUUGAAUGGAGUUUAACAUG,≤ -4.2
8,GGAUCUUCUCGAUCUAACAAAAAAGACAAAUCUGCCACAAAGCUUGAGAGCAUCUUCGGAAGCAGAGGCGGCAGCCUUCGGUGGCACGAUAGCGCCAACGUUCUCAACUAUGACACGCAAAACGCGUGCUCCGUUGAAUGGAGUUUAUCAUG,-2.67
9,GGAUCUUCUCGAUCUAACAAAAAAGACAAAUCUGCCACAAAGCUUGAGAGCAUCUUCGGAAGCAGAGGCGGCAGCCUUCGGUGGCGCGAUAGCGCCAACGUUCUGAACUAUGACACGCAAUACGCGUGCUCCGUUGAAUGGAGUUUAUCAUG,≤ -4.2
10,GGAUCUUCUCGAUCUAACAAAAAAGACAAAUCUGCCACAAAGCUUGAGAGCAUCUUCGGACGCAGAGGCGGCAGCCUUCGGUGGUGCGAUAGCGCCAACGUUCUCAACUAUGACACGCAAAACGCGUGCUCCGUUGAAUGGAGUUUAUCAUG,-2.66
11,GGAUCUUCUCGAUCUAACAAAAAAGACAAAUCUGCCACAAAGCUUGAGAGCAUCUUCGGAAGCACAGGCGGCAGCCUUCGGGGGCGCGAUAGCGCCAACGUUCUCAACUAUGACACGAAAAACGCGUGCUCCGUUGAUUGGAGUUUAUCAAG,≤ -4.2
12,GGAUCUUCUCGAUCUAACAAAAAAGACAAAUCUGCCACAAAGCUUGAGAGCAUCUUCGGUCGCAGAGGCGGCAGCCUUCGGUGGCGCGAUAGCGCCAACGUUCUCAACUAUGACACGCAAAACGCGUGCUCCGUUGAAUGGAGUUUAUCAUG,≤ -4.2
13,GGAUCUUCUCGAUCUAACAAAAAAGACAAAUCUGCCACAAAGCUUGAGAGCAUCUUCGGAAGCAGAGGCGGCAGCCUUCGGUGGCGCGAUAGCGCCAACGUCCUCAACUAGGACGCGCAAAAAGCGUGCUCCGUUGAAGGGAGUUUAUCAUG,≤ -4.2
14,GGAUCUUCUCGAUCUAACAAAAAAGACAAAUCUGCCACAAAGCUUGAGAGCAUCUUCGGAAGCAGAGGCGGCAGCCUUCGGUGGCGCGAUAGCGCCAACGUUCUCAACUAUGACACGCAAAACGCGUGCUCCGUUGAAUGGAGUUCAUCAUG,-0.489
15,GGAUCUUCUCGAUCUAACAAAAAAGACAAAUCUGCCACAAAGCUUGAGAGCAUCUUCGGAAGCAGAGGCGGCAGCCGUCGGUGGUGCGAUAGCGCCAACGUUCUCAACUAUGACACGCAAAACGAGUGCUCCGUUGAAUGGAGUUUAUCAUG,≤ -4.2
16,GGAUCUUCUCGAUCUAACAAAAAAGACAAAUCUGCCACAAAGCUUGAGAGCAUCUUCGGAAGCAGAGGCGGCAGCCUUCGGUGGUGCGUUAGCGCCAACGUUCUCAACUAUGACACGAAAAACGCGUGCUCCGUUGAAUGGAGUUUAUUAUG,-3.61
17,GGAUCUUCUCGAUCUAACAAAAAAGACAAAUCUGCCACAAAGCUUGAGAGCAUCUUCGGUAGCAGAGGCGGCAGCCUUCGGUGUCGCGAUAGCGCCAACGUUCUCAACUAUGACACGCAAAACGCGUACUCCGUUGAAUCGAGUUUACCAUG,≤ -4.2
18,GGAUCUUCUCGAUCUAACAAAAAAGACAAAUCUGCCACAAAGCUUGAGAGCAUCUUCGGAAGCAGAGGCGGCAGCCUUCGGUGGCGCGAUAGCGCCAACGAUCUCAACUAUGACACGCAAAACGCGUGCUCCGUUGAAUGGAGUUUAUCAUG,-1.08
19,GGAUCUUCUCGAUCUAACAAAAAAGACAAAUCUGCCACAAAGCUUGAGAGCAUCUUCGGAAGCAGAGGCGGCAGCCUUCGGUGGCGCGAUCGCGCCAACGUUCUCAACUAUGACACGCAAAACGCGUGCUCCGUUGAAUGGAGUUUAUCAUG,≤ -4.2

row,Variant,polymerase ribozyme fitness (log ratio)
1,GGAUCUUCUCGAUCUAACAAAAAAGACAAAUCUGCCACAAAGCUUGAGAGCAUCUUCGGAAGCAGAGGCGGCAGCCUUCGGUGGCGUGAUAGCGCCAACGUUCUCAACUAUGACACGCAAAACGCGUGCUCCGUUGAAUGGAGUUUCUCAUG,-3.49
2,GGAUCUUCUCGAUCUAACAAAAAAGACAAAUCUGCCACAAAGCUUGAGAGCAUCUUCGGAGGCAGAGGCGGCAGUCUUCGGUGGCGCGAUAACGCCAACGUUCUCAACUAUGACACGCAAAACGCGUGCUCCGUUGAAUGGAGUUUAUAAUG,≤ -4.2
3,GGAUCUUCUCGAUCUAACAAAAAAGACAAAUCUGCCACAAAGCUUGAGAGCAUCUUCGGAAGCAGAGGCGGCAGCCUUCGGUGGCGCGAUAGCGCCAACGUUCUCAACUAUGACACGGAAAACGCGUGCUCCGUUGAAUGGAGUUUAUCAUG,-1.89
4,GGAUCUUCUCGAUCUAACAAAAAAGACAAAUCUGCCACAAAGCUUGAGAGCAUCUUCGGACGCAGAGGCGGCAGCCUUCGAUGGCGCGAUAGCGCCAACGUUCUCAACUAUGACACGCAAAACGCGUGCUCCGUUGAAUGGAGUUUAUCAUG,-2.36
5,GGAUCUUCUCGAUCUAACAAAAAAGACAAAUCUGCCACAAAGCUUGAGAGCAUCUUCGGAAACAGAGGCGGCAGCCUUCGGUGGCGCGAUAGCGCCAACGUUCUCAACUAUGACACGCAAAACGCGUGCUCCGUUGAAUGGAGUUUAUCAUG,-1.48
6,GGAUCUUCUCGAUCUAACAAAAAAGACAAAUCUGCCACAAAGCUUGAGAGCAUCUUCGGAAGCCGAGUCGGCAGCCUUCGGUGGCCCGAUAGCGCCAACGUUCUCAACUAUGACACGCAAAACGCGUGCUCCGUUGAAUGGAGUUUAUCAUG,≤ -4.2
7,GGAUCUUCUCGAUCUAACAAAAAAGACAAAUCUGCCACAAAGCUUGAGAGCAUCUUCGGAAGCAGAGGCGGCAGCCUUCGGUGGCGCGAUAGCGCCAACGUCCUCAACUAUGACACGCAAAACGCGUGCUCCGUUGAAUGGAGUUUAUCAUG,-2.2
8,GGAUCUUCUCGAUCUAACAAAAAAGACAAAUCUGCCACAAAGCUUGAGAGCAUCUUCGGAAGCAGAGGCGGCAGCCUUCGGUGGCGCGAUAGCGCCAACGUUCUCAACUAUGACACGCAAAACGCGUGCUCCGUUGAAUGGAGUUUAUCGUG,-1.15
9,GGAUCUUCUCGAUCUAACAAAAAAGACAAAUCUGCCACAAAGCUUGAGAGCAUCUUCGGAAGCAGAGGCGGCAGCCUUCGGUAGCGCGAUAGCGCCAACGUUCUCAACUAUGACACGCAAAACGCGUGCUCCGUUGAAUGGAGUUUAUCAUG,-2.9
10,GGAUCUUCUCGAUCUAACAAAAAAGACAAAUCUGCCACAAAGCUUGAGAGCAUCUUCGGAAGCAGAGGAGGCAGCCUUCGGUGGCUCGAUAGCGCCAACGUUCUCAACUAUGACACCCGAAACGCGUGCUCCGUUGAAUGGAGUUUAUCAUG,-3.92
11,GGAUCUUCUCGAUCUAACAAAAAAGACAAAUCUGCCACAAAGCUUGAGAGCAUCUUCGGAAGCAGAGGCGGCAGCCUUCGGUGGCGCGAUAGCGCCAAUGUUCUCAACUAUGACACGCAAAACGCGUGCUCCGUUGAAUGGAGUUUAUCAUG,-2.69
12,GGAUCUUCUCGAUCUAACAAAAAAGACAAAUCUGCCACAAAGCUUGAGAGCAUCUUCGGAAGCAGAGGCGGCAGCCUUCGGUGGCGCGAUAGCGCCAACGUUCUCAACUAUGACACGCAAAACGCGUGCUCCGUUGAAUGGAGUUUAUUAUG,-1.63
13,GGAUCUUCUCGAUCUAACAAAAAAGACAAAUCUGCCACAAAGCUUGAGAGCAUCUUCGGAAGCAGAGGCGGCAGCCUUCGGUGGCGCGAUAGCGCCAACGUUUUCAACUAUGACACGCAAAACGCGUGCUCCGUUGAAUGGAGUUUAUCAUG,-1.31
14,GGAUCUUCUCGAUCUAACAAAAAAGACAAAUCUGCCACAAAGCUUGAGAGCAUCUUCGGAAGCAGAGGCGGCAGUCUUCGGUGGCGCGAUAGCGCCAACGUUCUCAACUAUGACACGCAAAACGCGUGCUCCGUUGAAUGGAGUUUAUCAUG,-1.92
15,GGAUCUUCUCGAUCUAACAAAAAAGACAAAUCUGCCACAAAGCUUGAGAGCAUCUUCGGAGGCAGAGGUGGCAGCCUUCGGUGGCGCGAUAGGGCCAACGUUCUCAACUAUGACACGCAAAACGCGUGCUCCGUUGAAUGGAAUUUAUCAUG,≤ -4.2
16,GGAUCUUCUCGAUCUAACAAAAAAGACAAAUCUGCCACAAAGCUUGAGAGCAUCUUCGGAAGCAGAGGCGGCAGCCUUCGGUGGCGCGAUAGCGCCAUCGUUCUCAACUAUGACACGCAAAACGCGUGCUCCGUUGAAUGGAGUUUAUCAUG,-1.28
17,GGAUCUUCUCGAUCUAACAAAAAAGACAAAUCUGCCACAAAGCUUGAGAGCAUCUUCGGAAGCAGAGGCGGCAGCCUUCGGUGGCGCGAUAGCGCCAACGUUCUCAACUAUGACACGCAAAACGCGUGCUCCGUUGAAUGGAGUUUAUCAUG,-1.18
18,GGAUCUUCUCGAUCUAACAAAAAAGACAAAUCUGCCACAAAGCUUGAGAGCAUCUUCGGAGGCAGAGGCGGCAGCCUUCGGUGGCGCGAUAGCGCCAACGUUCUCAACUAUGACACGCAAAACGCGUGCUCCGUUGAAUGGAGUUUAUCAUG,-1.25
19,GGAUCUUCUCGAUCUAACAAAAAAGACAAAUCUGCCACAAAGCUUGAGAGCAUCUUCGGACGCAGAGGCGGCAGCCUUCGGUGGCGCGAUAGCGCCAACGUUCUCAACUAUGACACGCAAAACGCGUGCUCCGUUGAAUGGAGUUUAUCAUG,-1.79
